The record followed here is article PMC9491713.

One may read the Kd as the constant that tells how readily two partners part at equilibrium.

In the experiment the target is cSFB-RBPJ protein purified from 293F cells, Q06330. Nature of the experiment: BLI. Conditions: remark: other sources report otherwise.

B1: FLAG-FBXO42 protein purified from 293F cells, Q6P3S6 1-717 (natural protein)
chain: MASSSDSEDDSFMAVDQEETVLEGTMDQDEEPHPVLEAEETRHNRSMSELPEEVLEYILSFLSPYQEHKTAALVCKQWYRLIKGVAHQCYHGFMKAVQEGNIQWESRTYPYPGTPITQRFSHSACYYDANQSMYVFGGCTQSSCNAAFNDLWRLDLNSKEWIRPLASGSYPSPKAGATLVVYKDLLVLFGGWTRPSPYPLHQPERFFDEIHTYSPSKNWWNCIVTTHGPPPMAGHSSCVIDDKMIVFGGSLGSRQMSNDVWVLDLEQWAWSKPNISGPSPHPRGGQSQIVIDDATILILGGCGGPNALFKDAWLLHMHSGPWAWQPLKVENEEHGAPELWCHPACRVGQCVVVFSQAPSGRAPLSPSLNSRPSPISATPPALVPETREYRSQSPVRSMDEAPCVNGRWGTLRPRAQRQTPSGSREGSLSPARGDGSPILNGGSLSPGTAAVGGSSLDSPVQAISPSTPSAPEGYDLKIGLSLAPRRGSLPDQKDLRLGSIDLNWDLKPASSSNPMDGMDNRTVGGSMRHPPEQTNGVHTPPHVASALAGAVSPGALRRSLEAIKAMSSKGPSASAALSPPLGSSPGSPGSQSLSSGETVPIPRPGPAQGDGHSLPPIARRLGHHPPQSLNVGKPLYQSMNCKPMQMYVLDIKDTKEKGRVKWKVFNSSSVVGPPETSLHTVVQGRGELIIFGGLMDKKQNVKYYPKTNALYFVRAKR
For B1, the Kd came out at 47 nM.
